Target: the molecule itself
Experiment: non-reducing SDS-PAGE (intersubunit disulfide bond assay); purified StrepII-tagged protein dialysed overnight in 100 mM Tris-Cl pH 7.5, 2 M NaCl; no reducing reagent; diluted 1:1 in SDS-loading buffer, boiled 10 min, 16% SDS-PAGE, Coomassie stain; shows only covalently (disulfide) linked subunits

B1: OxsR (HVO_2970) wild type with a C-terminal StrepII tag (natural protein, Haloferax volcanii, UniProt D4GY41 1-123, looked up)
chain: MADAPDMGELMETEDPNFGQVLACVFGIQSHESRTYLALLDNPGSTVAELAEVLDRDRSNVNRSLTTLLDKGLTERKRRLLDPGGYVYQYTATPLPEAKEMMHAALDEWAEDVHARIDAFGES
notes: 123 aa, 14 kDa; UniProtKB D4GY41; also called OxsR-StrepII; OxsR wt; source: H. volcanii SH125 (H26 ΔoxsR) carrying pJAM4019, purified (Strep-Tactin Superflow Plus resin, 2 M NaCl buffers); not shown: StrepII, C-terminal, kept
B1: binds.

Source: PMC9426492, “TrmB Family Transcription Factor as a Thiol-Based Regulator of Oxidative Stress Response” (mBio, 2022)
